From the supplement of paper PMC10567573

B1: FCHO1 (parent)
chain: FSDPSQSDPETKDFWLNMAALTEA

Variants of: B1
Test: protein stability index of a GFP-peptide fusion (GPS, HEK-293T) (PSI 1-6); higher = more stable
Settings: c terminus: a fixed tail appended
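Note: lentivirally expressed fusions sorted by FACS into six bins by GFP to DsRed ratio, PSI derived from sequencing read proportions per bin multiplied by bin number.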

Variant	protein stability index
FSDPSQSEPETKDFWLNMAALTEA [D8E]	3.1
FSDPSQSCPETKDFWLNMAALTEA [D8C]	2.62
FSDPSQSPPETKDFWLNMAALTEA [D8P]	2.93
FSDPSQSRPETKDFWLNMAALTEA [D8R]	2.57
FSDPSQSNPETKDFWLNMAALTEA [D8N]	1.95
FSDPSQSLPETKDFWLNMAALTEA [D8L]	2.63
FSDPSQSVPETKDFWLNMAALTEA [D8V]	3.11
FSDPSQSQPETKDFWLNMAALTEA [D8Q]	2.24
FSDPSQSKPETKDFWLNMAALTEA [D8K]	2.32
FSDPSQSYPETKDFWLNMAALTEA [D8Y]	2.23
FSDPSQSMPETKDFWLNMAALTEA [D8M]	3.04
FSDPSQSWPETKDFWLNMAALTEA [D8W]	1.86
FSDPSQSHPETKDFWLNMAALTEA [D8H]	2.21
FSDPSQSTPETKDFWLNMAALTEA [D8T]	2.81
FSDPSQSFPETKDFWLNMAALTEA [D8F]	2.37
FSDPSQSGPETKDFWLNMAALTEA [D8G]	2.75
FSDPSQSIPETKDFWLNMAALTEA [D8I]	2.9
FSDPSQSAPETKDFWLNMAALTEA [D8A]	2.62
FSDPSQSSPETKDFWLNMAALTEA [D8S]	2.71
FSDVSQSDPETKDFWLNMAALTEA [P4V]	2.65
FSDASQSDPETKDFWLNMAALTEA [P4A]	2.81
FSDMSQSDPETKDFWLNMAALTEA [P4M]	2.21
FSDGSQSDPETKDFWLNMAALTEA [P4G]	2.38
FSDISQSDPETKDFWLNMAALTEA [P4I]	3.33

Variant	protein stability index
FSDKSQSDPETKDFWLNMAALTEA [P4K]	2.04
FSDCSQSDPETKDFWLNMAALTEA [P4C]	1.99
FSDESQSDPETKDFWLNMAALTEA [P4E]	3.37
FSDSSQSDPETKDFWLNMAALTEA [P4S]	2.26
FSDFSQSDPETKDFWLNMAALTEA [P4F]	2.16
FSDRSQSDPETKDFWLNMAALTEA [P4R]	2.02
FSDQSQSDPETKDFWLNMAALTEA [P4Q]	2.67
FSDDSQSDPETKDFWLNMAALTEA [P4D]	3.49
FSDWSQSDPETKDFWLNMAALTEA [P4W]	1.85
FSDTSQSDPETKDFWLNMAALTEA [P4T]	2.23
FSDLSQSDPETKDFWLNMAALTEA [P4L]	2.45
FSDNSQSDPETKDFWLNMAALTEA [P4N]	2.04
FSDHSQSDPETKDFWLNMAALTEA [P4H]	2.16
FSDYSQSDPETKDFWLNMAALTEA [P4Y]	1.85
FSDPSQSDPEHKDFWLNMAALTEA [T11H]	2.87
FSDPSQSDPESKDFWLNMAALTEA [T11S]	2.98
FSDPSQSDPERKDFWLNMAALTEA [T11R]	2.69
FSDPSQSDPEPKDFWLNMAALTEA [T11P]	3.38
FSDPSQSDPEWKDFWLNMAALTEA [T11W]	1.74
FSDPSQSDPEVKDFWLNMAALTEA [T11V]	2.69
FSDPSQSDPEKKDFWLNMAALTEA [T11K]	2.49
FSDPSQSDPECKDFWLNMAALTEA [T11C]	2.92
FSDPSQSDPEYKDFWLNMAALTEA [T11Y]	2.06
FSDPSQSDPELKDFWLNMAALTEA [T11L]	2.13

Variant	protein stability index
FSDPSQSDPEIKDFWLNMAALTEA [T11I]	2.7
FSDPSQSDPENKDFWLNMAALTEA [T11N]	3.12
FSDPSQSDPEAKDFWLNMAALTEA [T11A]	3.11
FSDPSQSDPEQKDFWLNMAALTEA [T11Q]	3.15
FSDPSQSDPEMKDFWLNMAALTEA [T11M]	2.31
FSDPSQSDPEFKDFWLNMAALTEA [T11F]	2.09
FSDPSQSDPEDKDFWLNMAALTEA [T11D]	4.34
FSDPSQSDPEGKDFWLNMAALTEA [T11G]	3.04
FSDPSQSDPEEKDFWLNMAALTEA [T11E]	4.2
FSMPSQSDPETKDFWLNMAALTEA [D3M]	1.96
FSYPSQSDPETKDFWLNMAALTEA [D3Y]	1.78
FSSPSQSDPETKDFWLNMAALTEA [D3S]	2.38
FSHPSQSDPETKDFWLNMAALTEA [D3H]	1.69
FSEPSQSDPETKDFWLNMAALTEA [D3E]	2.73
FSGPSQSDPETKDFWLNMAALTEA [D3G]	1.74
FSAPSQSDPETKDFWLNMAALTEA [D3A]	1.45
FSPPSQSDPETKDFWLNMAALTEA [D3P]	2.4
FSLPSQSDPETKDFWLNMAALTEA [D3L]	1.74
FSNPSQSDPETKDFWLNMAALTEA [D3N]	2.02
FSCPSQSDPETKDFWLNMAALTEA [D3C]	2.23
FSQPSQSDPETKDFWLNMAALTEA [D3Q]	2.08
FSTPSQSDPETKDFWLNMAALTEA [D3T]	1.74
FSIPSQSDPETKDFWLNMAALTEA [D3I]	1.71
FSFPSQSDPETKDFWLNMAALTEA [D3F]	2.1

Variant	protein stability index
FSRPSQSDPETKDFWLNMAALTEA [D3R]	2.06
FSKPSQSDPETKDFWLNMAALTEA [D3K]	1.48
FSWPSQSDPETKDFWLNMAALTEA [D3W]	2.72
FSVPSQSDPETKDFWLNMAALTEA [D3V]	1.45
FSDPSQSDPETNDFWLNMAALTEA [K12N]	3.66
FSDPSQSDPETCDFWLNMAALTEA [K12C]	3.04
FSDPSQSDPETGDFWLNMAALTEA [K12G]	3.23
FSDPSQSDPETADFWLNMAALTEA [K12A]	3.25
FSDPSQSDPETIDFWLNMAALTEA [K12I]	3.11
FSDPSQSDPETEDFWLNMAALTEA [K12E]	3.6
FSDPSQSDPETDDFWLNMAALTEA [K12D]	4.39
FSDPSQSDPETLDFWLNMAALTEA [K12L]	2.62
FSDPSQSDPETHDFWLNMAALTEA [K12H]	3.2
FSDPSQSDPETFDFWLNMAALTEA [K12F]	2.6
FSDPSQSDPETMDFWLNMAALTEA [K12M]	3.07
FSDPSQSDPQTKDFWLNMAALTEA [E10Q]	2.54
FSDPSQSDPTTKDFWLNMAALTEA [E10T]	2.12
FSDPSQSDPDTKDFWLNMAALTEA [E10D]	3
FSDPSQSDPITKDFWLNMAALTEA [E10I]	2.45
FSDPSQSDPLTKDFWLNMAALTEA [E10L]	2.33
FSDPSQSDPATKDFWLNMAALTEA [E10A]	2.5
FSDPSQSDPHTKDFWLNMAALTEA [E10H]	1.97
FSDPSQSDPFTKDFWLNMAALTEA [E10F]	1.94
FSDPSQSDPMTKDFWLNMAALTEA [E10M]	1.94

Variant	protein stability index
FSDPSQSDPGTKDFWLNMAALTEA [E10G]	2.03
FSDPSQSDPVTKDFWLNMAALTEA [E10V]	2.63
FSDPSQSDPCTKDFWLNMAALTEA [E10C]	2.06
FSDPSQSDPWTKDFWLNMAALTEA [E10W]	1.83
FSDPSQSDPSTKDFWLNMAALTEA [E10S]	2.2
FSDPSQSDPNTKDFWLNMAALTEA [E10N]	1.9
FSDPSQSDPRTKDFWLNMAALTEA [E10R]	2.29
FSDPSQSDPYTKDFWLNMAALTEA [E10Y]	2.14
FSDPSQSDPKTKDFWLNMAALTEA [E10K]	2.04
FSDPSQSDPPTKDFWLNMAALTEA [E10P]	2.66
FSDPVQSDPETKDFWLNMAALTEA [S5V]	2.54
FSDPFQSDPETKDFWLNMAALTEA [S5F]	2.27
FSDPAQSDPETKDFWLNMAALTEA [S5A]	3.03
FSDPWQSDPETKDFWLNMAALTEA [S5W]	1.74
FSDPEQSDPETKDFWLNMAALTEA [S5E]	4.46
FSDPYQSDPETKDFWLNMAALTEA [S5Y]	2.45
FSDPKQSDPETKDFWLNMAALTEA [S5K]	2.94
FSDPCQSDPETKDFWLNMAALTEA [S5C]	2.6
FSDPLQSDPETKDFWLNMAALTEA [S5L]	2.84
FSDPPQSDPETKDFWLNMAALTEA [S5P]	2.94
FSDPHQSDPETKDFWLNMAALTEA [S5H]	2.87
FSDPNQSDPETKDFWLNMAALTEA [S5N]	2.79
FSDPRQSDPETKDFWLNMAALTEA [S5R]	2.21
FSDPQQSDPETKDFWLNMAALTEA [S5Q]	3.21

Variant	protein stability index
FSDPIQSDPETKDFWLNMAALTEA [S5I]	2.74
FSDPMQSDPETKDFWLNMAALTEA [S5M]	3.35
FSDPTQSDPETKDFWLNMAALTEA [S5T]	2.84
FSDPGQSDPETKDFWLNMAALTEA [S5G]	2.66
FSDPDQSDPETKDFWLNMAALTEA [S5D]	3.93
FSDPSQSDKETKDFWLNMAALTEA [P9K]	3.05
FSDPSQSDWETKDFWLNMAALTEA [P9W]	2.4
FSDPSQSDMETKDFWLNMAALTEA [P9M]	3.39
FSDPSQSDSETKDFWLNMAALTEA [P9S]	2.6
FSDPSQSDHETKDFWLNMAALTEA [P9H]	2.73
FSDPSQSDRETKDFWLNMAALTEA [P9R]	2.8
FSDPSQSDGETKDFWLNMAALTEA [P9G]	2.77
FSDPSQSDTETKDFWLNMAALTEA [P9T]	3.19
FSDPSQSDCETKDFWLNMAALTEA [P9C]	2.68
FSDPSQSDLETKDFWLNMAALTEA [P9L]	2.77
FSDPSQSDIETKDFWLNMAALTEA [P9I]	2.82
FSDPSQSDEETKDFWLNMAALTEA [P9E]	4.01
FSDPSQSDDETKDFWLNMAALTEA [P9D]	3.7
FSDPSQSDYETKDFWLNMAALTEA [P9Y]	2.65
FSDPSQSDAETKDFWLNMAALTEA [P9A]	3.12
FSDPSQSDNETKDFWLNMAALTEA [P9N]	2.63
FSDPSQSDQETKDFWLNMAALTEA [P9Q]	3.27
FSDPSQSDFETKDFWLNMAALTEA [P9F]	2.76
FSDPSQSDVETKDFWLNMAALTEA [P9V]	3.54

Variant	protein stability index
FTDPSQSDPETKDFWLNMAALTEA [S2T]	2.11
FYDPSQSDPETKDFWLNMAALTEA [S2Y]	3.28
FRDPSQSDPETKDFWLNMAALTEA [S2R]	3.79
FWDPSQSDPETKDFWLNMAALTEA [S2W]	2.93
FQDPSQSDPETKDFWLNMAALTEA [S2Q]	2.4
FVDPSQSDPETKDFWLNMAALTEA [S2V]	1.93
FSDPSKSDPETKDFWLNMAALTEA [Q6K]	2.52
FSDPSDSDPETKDFWLNMAALTEA [Q6D]	3.3
FSDPSESDPETKDFWLNMAALTEA [Q6E]	3.35
FSDPSHSDPETKDFWLNMAALTEA [Q6H]	2.59
FSDPSLSDPETKDFWLNMAALTEA [Q6L]	2.55
FSDPSCSDPETKDFWLNMAALTEA [Q6C]	2.64
FSDPSSSDPETKDFWLNMAALTEA [Q6S]	2.66
FSDPSNSDPETKDFWLNMAALTEA [Q6N]	2.56
FSDPSGSDPETKDFWLNMAALTEA [Q6G]	2.25
FSDPSWSDPETKDFWLNMAALTEA [Q6W]	1.75
FSDPSYSDPETKDFWLNMAALTEA [Q6Y]	1.81
FSDPSMSDPETKDFWLNMAALTEA [Q6M]	2.66
FSDPSVSDPETKDFWLNMAALTEA [Q6V]	2.85
FSDPSFSDPETKDFWLNMAALTEA [Q6F]	2.65
FSDPSISDPETKDFWLNMAALTEA [Q6I]	2.4
FSDPSRSDPETKDFWLNMAALTEA [Q6R]	2.44
FSDPSPSDPETKDFWLNMAALTEA [Q6P]	3.16
FSDPSASDPETKDFWLNMAALTEA [Q6A]	2.91

Variant	protein stability index
FSDPSTSDPETKDFWLNMAALTEA [Q6T]	2.68
FSDPSQHDPETKDFWLNMAALTEA [S7H]	3.39
FSDPSQYDPETKDFWLNMAALTEA [S7Y]	2.69
FSDPSQIDPETKDFWLNMAALTEA [S7I]	2.38
FSDPSQKDPETKDFWLNMAALTEA [S7K]	2.8
FSDPSQGDPETKDFWLNMAALTEA [S7G]	2.6
FSDPSQRDPETKDFWLNMAALTEA [S7R]	2.64
FSDPSQMDPETKDFWLNMAALTEA [S7M]	3.55
FSDPSQLDPETKDFWLNMAALTEA [S7L]	2.65
FSDPSQEDPETKDFWLNMAALTEA [S7E]	3.69
FSDPSQDDPETKDFWLNMAALTEA [S7D]	3.73
FSDPSQVDPETKDFWLNMAALTEA [S7V]	3.29
FSDPSQADPETKDFWLNMAALTEA [S7A]	3.37
FSDPSQQDPETKDFWLNMAALTEA [S7Q]	3.18
FSDPSQWDPETKDFWLNMAALTEA [S7W]	2
FSDPSQTDPETKDFWLNMAALTEA [S7T]	2.74
FSDPSQPDPETKDFWLNMAALTEA [S7P]	3.92
FSDPSQNDPETKDFWLNMAALTEA [S7N]	2.86
FSDPSQCDPETKDFWLNMAALTEA [S7C]	2.9
FSDPSQFDPETKDFWLNMAALTEA [S7F]	2.63
